Assay results as given in the DeepSol protein solubility set.

Assay: soluble on expression in E. coli; label from the status in PepcDB or PDB records

Sequence	soluble on expression in E. coli
MSLKANNLLSQFGDHRQRVQSAITAVCEGRGILLVDDENRENEGDLIFSAQSMTEADMAIMIRHCSGIVCLCITEEKARQLNLPLMVEQNTSKYGTAFTISIEAAEGVTTGVSAADRIQTIRTAIAPNATPESLHHPGHIFPLIARSGGIKERSGHTEGSIDLMKLAGLAPCAVLCELTNDDGTMARLPEIIKFGLEHKYPVVTINDLKEYQTAPDFLPKLVGSFSCPAAENPTTAIMEAAFRHHYMHYRYINCEVGPENLAAAIQGAKAMGWRGFNCSLPNKVEIIRYLDELGESAKIIGAVNTVVIGDDQRATGENTDGKGFVKAISEIITIQDKKIALLGAGGAARAIAVEMALAGVKEITILNRNRDKGQALADLLNSQTVATARFVLWDHPYRFSTDIDIVINATSVGLYSNVDQRLNIDTDTLLPHMVVADCIPNPVYTQLLRDAVRRGCCHVLPGMKMLVYQAVIAIKYWSGVDVDPDIMLEKLKEVVKEGHHHHHH	soluble
MKSGRFIGVMSGTSLDGVDVVLAAIDETMVAQQASLTWPIPVHLKKGILDICQGQPLTLSQLGQLDTQLGRLFAQAVNALLAQQRLQPRDIVAIGCHGQTVWHEPTGEAPHTLQIGDNNHIVAHTGITVVGDFRRRDIALGGQGAPLVPAFHHALLGHPTEKRMVLNIGGIANLSLLFPGQAVRGYDTGPGNMLMDAWIWRQCAQPYDKDAAWAKEGQVILPLLQKMLRDPYFAASAPKSTGREYFNYGWLERHLAAFPGADARDVQATLAELTAVSIAQQVLLNGGCERLMVCGGGGRNPLVMARLAALLPGIEVSTTDKAGISGDDMEALAFAWLAWRTLAGLPGNLPSVTGATEASVLGAIYPANPITQS	not soluble
SLTKPIGEKADPERLAAFLNEKGGNALSHLGFLGDKRFYFSSDGNALLLFGKIARRLVVLGDPSGQRESFPLVLEEFLNEAHQKGFSVLFYQIEREDMALYHDFGYNFFKLGEEAYVDLNTFTLTGKKKAGLRAINNRFEREEYTFHVDHPPFSDAFLEELKQISDEWLGSKKEKGFSLGFFDPSYLQKAPIAYMKNAEGEIVAFANVMPMYQEGEISVDLMRYRGDAPNGIMDALFIRMFLWAKEEGCTSFNMGMAPLANVGTAFTSFWSERFAAVIFNNVRYMYSFSGLRAFKEKYKPEWRGKYLAYRKNRSLSVTMFLVTRLIGKSKKDSV	soluble
MSLEARGLNVTIMKLDPYINVDPGTMSPTQHGEVFVTQDGAETDLDLGHYERFIRTKMTKRNNFTTGKIYSEVLRKERRGDYLGATIQVIPHITNEIKDRVIAGAQGHDVVIVEVGGTVGDIESLPFLEALRQLAVQVGREHTLFMHLTLVPYIPTAGEVKTKPTQHSVKELLSIGIQPDVLICRSDRMIPPNERAKIALFCNVAERAVISLKDVNSIYQIPALLKSQGLDDFVCERFRLTCPEADLTEWEQVLYKQANPVGEVTIGMVGKYTELPDAYKSVNEALKHAGLTNRLSVNIKYIDSQDVETKGVEVLKGIDGILVPGGFGYRGVEGKIRTAQYARENKIPYLGICLGMQIALIEYARNVAGLTKANSSEFDKDCEQPVVALITEWQDAEGNTEVRTDESDLGGTMRLGAQQCHLVSGSRARELYGKETIEERHRHRYEVNNTLLPQIEKAGLKVTGLSADKKLVEIIEVPNHPWFVACQFHPEFTSTPRDGHPLFAGFVKAAYENHKKSVKEGHHHHHH	not soluble
MTERKLVAERNFEVNGYDIDAMGIVSNIVYIRWFEDLRTDFINQYMPYSDMMNQQISPILMNTEAEYKTPITIHDKPVGRCYLVKASKLRWEFEFEIESEDAVHCIGKQSGTFFDLQKKKVTRLPEVFQTILSLEHHHHHH	not soluble
MKGEIEGITDDGIGVRVIDKNGFEHKIEMLFDGEIVYHHQKGYPDNPKERTNEEDESVAQARRFARYHVYREKGYDTVPNPDNPDRIAAVLLALIGLDDQQFDQYFGMLYEQMASHERADVAPVLDLPQEVYSEEFIVYKQNVYLEESLDAMQDQLTQPATEVFGEENLQEFLQETGDGLVAKARSLVGGGTDEDEDASEEPSIPEADLSIADVSGLDTMYSTPEGYKTIEGEDPVSREPDARIETLPMGYTREQFRYHVGHNLICQIRDCFISMGVEPPAQYRLLGHGKFKYSAKYRDFDFYPDYWDYEANIPGYSSPV	not soluble
MLHITLHQLKIFESVARLLNFTHAAEELHLTQPAVSIQIKRLEEMVALPLFEQIGKRVHLTEAGKELFHYSRGITRQLADMELALDELKGLERGKLSISVVSTANYFVPNLLAKFCQRYPGITISLHVSNRENVLKQLSDNIMDLAIMGQPPEGLDITSESFMENPLVIIAPPEHPLCGQKQIPVKRLEQEIFLVREPGSGTRNAMERFFAHEKISIQKGMEADTAEAIKQAIQAGMGLGIMSLHTIRLELEAGRLKILDIQGLPIMRYWNVVHQKNKRLSNISSVFKQFLLNEAADLVALEYPHRNTT	not soluble
MGASRMTEIIDISLDITEDTVVMPENPEFDKERLASIGKEGYELYKICMSNHIGTHIDAPAHFVSEGALINQLDLDTLMGKALVVEIKDEHKISVDELKRVNLKDNIRLLFKTRNSELIAENKLTKDFVYIEEQAAGHLVKNGVKLIGLDYFTIDRIEDQDKPAHKEFAGNGVVVIEGVNLLNVEPGEYELVALPIKINADGAPARVILRRLEHHHHHH	soluble
GMTISRNYDQEIKDTAGHKYAYNFDFDVMHPFMVRAFTPFFRPGNLLELGSFKGDFTSRLQEHFNDITCVEASEEAISHAQGRLKDGITYIHSRFEDAQLPRRYDNIVLTHVLEHIDDPVALLKRINDDWLAEGGRLFLVCPNANAVSRQIAVKMGIISHNSAVTEAEFAHGHRCTYALDTLERDASRAGLQVTYRSGIFFKALANFQWDQILQTDILSKEYLDGCYQLGQQYPDLCASIFLLCEKGINQ	soluble
GSVLEPLKVVWAKCSGYPSYPALIIDPKMPRVPGHHNGVTIPAPPLDVLKIGEHMQTKSDEKLFLVLFFDNKRSWQWLPKSKMVPLGIDETIDKLKMMEGRNSSIRKAVRIAFDRAMNHLSRVHGE	soluble
MQMCFSKSAQHHSKVKQRNSLLEIMENCFEMMVARCIKIGTVQTLTMLGLLPEVVTISQAEDIYGKRLITEWREKAWIKFYPANNKERGKYYVKRSELETASAMMDLHNKVPDNIIKQLMQLTV	not soluble
MPLPIAAPPILASTLTLLLATTPTAAALTPEQHAAALVAQMTRQEKIAQTMNAAPAIPRLGIPAYDWWSEGLHGIARNGYATVFPQAIGLAASWNTDLLQHVGTVTSTEARAKFNLTGGPGKDHPRYAGLTLWSPNINIFRDPRWGRGMETYGEDPYLTSQLAVSFIRGLQGDTPDHPRTIATPKHFAVHSGPEQGRHSFDVDVSAYDLEATYTPAFRAAIVDGHAGSVMCAYNALHGTPACASDWLLNTRLRNDWGFNGFVVSDCDAIEDMTRFHFFRQDNASASAAALKSGNDLNCGNTYRDLNQAIARGDIDESTLDQALIRLFTARQRLGTLQPREHDPYAAIGIK	not soluble
MTRACNLYVFKNKYVSFNLLDSPNSNPKLLKISLPFNFMDEFEGLLKAVGSAPWYKLIGMVPKLQGDRVVVEMEIDRSKHLQALGTTHGGAIASVLDSAIGLNVNREVVKMGKTAVTAQLNIHYIRPVTEGKIVGVGMPMHIGSKVTVGYGEVRNEEGELVAAGTATFYIIDRRFRDLEHHHHHH	not soluble
MKSVFVESTIFEKYRDEYLSDEEYRLFQAELMLNPKLGDVIQGTGGLRKIRVASKGKGKRGGSRIIYYFLDEKRRFYLLTIYGKNEMSDLNANQRKQLMAFMEAWRNEQS	not soluble
MSFEAFTELYIRDVKNRLKENTWLTKEHIIRTKILPFFGKLKISEISTKEIITWQNEMLAYRDEKKKPYSQTYLKTLHNQLSAIFNHAVRYYELRSNPAAKVGNMGSELEHHHHHH	not soluble
GMAQAQTQGQEEEQKKKILIVVTHGPEDLDRTYAPLFMASISASMEYETSVFFMIKGPKLLDKKWQEEERKKGGNPFIHFFDMAKENGVKMYVCVQSLKDMCHMKEDDVVEGIELVGGSTLIDLTLEADRTLFF	soluble
WQENMLIPMMAINEDNLWVHQKYGYAIPRRNGKTEVVYILELWALHKGLKILHTAHRISTSHSSFEKVKKYLEMSGYVDGEDFISNKAKGQERIEFKSSGSVIQFRTRTSNGGLGEGFDLLIIDEAQEYTAEQESALKYTVTDSDNPMTIMCGTPPTMVSTGTVFESYRKECLKGDRRYSGWAEWSVDEMQPIHDVKSWYVANPSMGYHLNERKIEAELGEDEIDHNIQRLGYWPSFNQKSVISEKEWAKLKVEQVPELKSKLFVGIKFGQDGNNVSLSIAARASENKVFVEAIDCLSVRNGTQWIINFLKSADIAKVVVDGASGQELLAQEMREHGLKKPELPKVAEIITANTMWEQGIMQETICHNDQPSLTAVVTNCEKRQIGSNGGFGYKSLYDDRDISLMDSALLAHWICYTTKPKRKQRTSC	not soluble
MRVVALGDLHANFPLLWRILRREGLADEGFRPTEALRSGRVRLVLLGDLVHPKTPRDYARLTGLEAYDPEDPFHLRLAAGAQIRELFRLKAFQEEAGDHVTILLGNHEAALLEGSPILGNRHLKHLEFHPEHGGKALPEALRSWMASFPKELVLKGVHFAHVGPVPWLQEYDGLFYAQSEAKTWWFLTPEYVERMGYRYGVYGHTPMPDGILLKDRFALIDALDLGEYLVLDPEADPPRPEVRRLHE	soluble
MGLHYFLDHKKEDLYKSVQDVYKSDDRPWVVGFSGGKDSTVVVQIIFYALASMSKNELTKPVYIISSDTMVENPKILEHIDTQLLKMKKAANELELPIHVEKVMPNIKNTFWVNLIGRGYPAPRQKFRWCTDRLKIDPANNFILNKVSEFGETVVVLGVRKSESSTRAQVMNTHKVEGKILRRHTKLPNSYVYAPIEDFSLDDVWTYLMQVPNPWGADNADLLALYQDSQGECPLVIDNSTPSCGNSRFGCWVCTVVQEDKSLKGFIESGDEWLTPLLKFRNWLLENRDKEDYREKKRANGSVYLIGDEDNKRLGLGPYTLEHRKEILRKLLETEKQLQHPHQPKYELITIEELKEIRKIWFEKGDWEDSVLAIYEEVYGHRPNWDIEESKFLESEDIKLLKKLCHEEEVEFELVQKLVNLEFQHYGYKHRYGILKDINRILNEEWLHFDQLQQGDNYAD	not soluble
MAHHHHHHMALRGVPIRLGVHRVGYTHPSTLPVPCAQRWDLRLARARIFQEYIEEKAPGAWQLEDERSMSPEFKTFTGYPMREMRPGYGQNLPDFIMKKRLPNNTHYELFARRDIPNEENAMYGKYLYDMTVHGTSLPSTYRMHKDINKAQRNDRKLSGNRFRVLCSSGAKKPPSGWEPIPDATEEEE	not soluble
MQKMDCQAIGYGYIIIPKALLKEQLIDCSPHEGEIEAFLKLLVKVNYSETKLTDHQRRTIVCKRGESLHSYRSWSAIFHWPTSRTYRFIQQLKTNGIIEIIPHNDTTALHIRVVNYENWTNISALLNEKKENTQKASNEKFRLFWDDYHNILQLPKENIAKAQRIWKKLSEKEQQLAIDHIEEYYYHQTNMKFTLHACSYLSNKAFLNEYEY	not soluble
MGSDKIHHHHHHMRCPWRKTRRHSDNGWYGPRNQIRPDDHRLHRKVRKSRGDSRRAGNGSPRARCFEGAQRRGKSDGLSECGRMKNLLEMVELVRGKRMKIAVGAAEDEEVLKAVARAKEEEIVDPVLFGKRKDIETLVERMNLELEAEIVHVEDPFEAVRKAVESVSRNETQILMKGKIKTSDLFSVFLKKEYGLRTGRTLSAVSVHEVPGYHKILIISDGGLVISPNLQQRMDIVENSILVARALGIEKPKIALLGTGDLKSPLTLEIAALSKIFQQRNDCIVDGPLTLDLAISEELASKAGNSPVAGDADILIVPSIETGNILSKSLVYMARGRAAIVVVGGRVPVVLTSRADDEETRFLSIALSVLVAQKKG	not soluble
